Source: patent publication US20190322730A1

Columns and labels:
Assay in all cases: binding screen of Example 5; the reference itself
C3a (human) = C3a (human) (UniProt P01024)
C3b (human) = C3b (human) (UniProt P01024)
C3c = C3c (UniProt P01024)
C3d = C3d (UniProt P01024)
Factor Bb = Factor Bb (UniProt P00751)
[1] = target: human complement component C3 (human) (UniProt P01024)
iC3b = iC3b (UniProt P01024)

Measured: binding relative to negative control mIgG2

C3b (human), sequence (P01024 23-667 limits assumed, chain 1 of 2): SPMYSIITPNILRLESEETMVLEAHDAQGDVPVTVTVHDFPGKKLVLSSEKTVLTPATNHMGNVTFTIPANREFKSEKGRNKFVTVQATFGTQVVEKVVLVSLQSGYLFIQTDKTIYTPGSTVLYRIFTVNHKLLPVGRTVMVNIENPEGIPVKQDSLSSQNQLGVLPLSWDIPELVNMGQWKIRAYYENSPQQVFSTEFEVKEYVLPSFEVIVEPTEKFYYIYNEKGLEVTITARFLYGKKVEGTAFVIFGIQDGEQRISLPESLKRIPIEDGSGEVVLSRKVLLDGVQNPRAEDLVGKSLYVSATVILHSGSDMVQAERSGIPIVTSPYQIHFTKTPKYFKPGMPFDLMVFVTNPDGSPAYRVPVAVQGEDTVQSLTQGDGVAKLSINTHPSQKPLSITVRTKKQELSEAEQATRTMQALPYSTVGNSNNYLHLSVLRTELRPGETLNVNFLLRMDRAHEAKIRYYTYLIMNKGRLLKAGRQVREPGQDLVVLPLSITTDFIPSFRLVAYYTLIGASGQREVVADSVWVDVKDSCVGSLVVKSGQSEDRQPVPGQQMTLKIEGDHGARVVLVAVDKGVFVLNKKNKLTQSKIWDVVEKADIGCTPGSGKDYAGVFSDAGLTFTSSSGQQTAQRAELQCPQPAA
C3b (human), sequence (P01024 749-1663 limits assumed, chain 2 of 2): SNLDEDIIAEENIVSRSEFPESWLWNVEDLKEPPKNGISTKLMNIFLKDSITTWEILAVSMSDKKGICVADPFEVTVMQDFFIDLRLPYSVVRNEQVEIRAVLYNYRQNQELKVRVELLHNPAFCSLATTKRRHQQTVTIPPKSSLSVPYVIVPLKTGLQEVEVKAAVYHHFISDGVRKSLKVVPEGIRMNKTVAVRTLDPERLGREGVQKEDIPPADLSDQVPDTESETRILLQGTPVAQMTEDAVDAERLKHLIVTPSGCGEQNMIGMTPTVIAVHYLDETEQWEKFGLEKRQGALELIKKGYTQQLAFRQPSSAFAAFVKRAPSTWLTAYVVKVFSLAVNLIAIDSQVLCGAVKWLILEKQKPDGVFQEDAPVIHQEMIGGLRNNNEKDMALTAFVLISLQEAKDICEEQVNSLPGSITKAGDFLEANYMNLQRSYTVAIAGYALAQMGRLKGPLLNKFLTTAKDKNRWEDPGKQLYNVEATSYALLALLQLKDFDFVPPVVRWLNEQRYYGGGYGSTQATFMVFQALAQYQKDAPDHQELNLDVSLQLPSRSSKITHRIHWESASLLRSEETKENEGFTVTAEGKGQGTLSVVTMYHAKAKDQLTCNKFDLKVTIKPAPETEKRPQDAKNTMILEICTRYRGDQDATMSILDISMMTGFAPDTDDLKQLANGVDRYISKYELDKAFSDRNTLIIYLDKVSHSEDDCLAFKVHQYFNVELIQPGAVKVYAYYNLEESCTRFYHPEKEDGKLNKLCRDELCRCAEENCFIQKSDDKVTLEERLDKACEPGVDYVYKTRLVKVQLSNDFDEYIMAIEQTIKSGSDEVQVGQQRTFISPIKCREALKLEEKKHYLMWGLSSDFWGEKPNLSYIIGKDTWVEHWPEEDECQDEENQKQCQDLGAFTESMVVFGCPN
human complement component C3 (human), sequence (P01024 23-667, chain 1 of 2): as the sequence (P01024 23-667 limits assumed, chain 1 of 2) above
human complement component C3 (human), sequence (P01024 672-1663, chain 2 of 2): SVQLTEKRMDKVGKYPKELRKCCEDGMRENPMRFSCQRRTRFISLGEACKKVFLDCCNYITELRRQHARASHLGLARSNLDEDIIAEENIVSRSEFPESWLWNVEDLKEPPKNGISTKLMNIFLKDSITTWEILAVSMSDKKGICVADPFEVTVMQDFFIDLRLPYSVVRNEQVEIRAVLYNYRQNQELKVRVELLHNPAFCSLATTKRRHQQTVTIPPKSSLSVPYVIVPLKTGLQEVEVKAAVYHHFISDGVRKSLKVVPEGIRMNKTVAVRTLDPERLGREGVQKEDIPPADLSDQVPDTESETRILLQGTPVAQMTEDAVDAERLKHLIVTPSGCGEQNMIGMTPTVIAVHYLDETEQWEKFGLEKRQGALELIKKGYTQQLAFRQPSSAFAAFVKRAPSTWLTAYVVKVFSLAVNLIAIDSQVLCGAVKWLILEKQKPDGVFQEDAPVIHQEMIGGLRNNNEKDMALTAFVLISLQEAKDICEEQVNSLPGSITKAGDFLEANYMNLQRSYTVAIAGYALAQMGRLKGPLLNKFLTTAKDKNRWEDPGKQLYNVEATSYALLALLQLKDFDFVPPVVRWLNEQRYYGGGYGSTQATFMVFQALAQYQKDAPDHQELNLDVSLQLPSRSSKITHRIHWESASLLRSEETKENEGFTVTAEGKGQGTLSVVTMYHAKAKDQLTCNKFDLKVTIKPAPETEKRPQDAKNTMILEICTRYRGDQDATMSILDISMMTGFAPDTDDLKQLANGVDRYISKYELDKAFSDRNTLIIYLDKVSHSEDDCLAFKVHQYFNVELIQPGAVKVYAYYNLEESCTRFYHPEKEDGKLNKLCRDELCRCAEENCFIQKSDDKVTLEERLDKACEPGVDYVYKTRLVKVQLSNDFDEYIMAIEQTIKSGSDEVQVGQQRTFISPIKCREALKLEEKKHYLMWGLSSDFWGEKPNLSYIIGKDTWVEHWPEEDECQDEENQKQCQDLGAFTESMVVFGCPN
C3a (human), sequence (P01024 672-748 limits assumed): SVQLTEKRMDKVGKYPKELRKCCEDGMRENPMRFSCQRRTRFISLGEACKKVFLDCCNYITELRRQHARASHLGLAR
Factor Bb, sequence (P00751 260-764 limits assumed): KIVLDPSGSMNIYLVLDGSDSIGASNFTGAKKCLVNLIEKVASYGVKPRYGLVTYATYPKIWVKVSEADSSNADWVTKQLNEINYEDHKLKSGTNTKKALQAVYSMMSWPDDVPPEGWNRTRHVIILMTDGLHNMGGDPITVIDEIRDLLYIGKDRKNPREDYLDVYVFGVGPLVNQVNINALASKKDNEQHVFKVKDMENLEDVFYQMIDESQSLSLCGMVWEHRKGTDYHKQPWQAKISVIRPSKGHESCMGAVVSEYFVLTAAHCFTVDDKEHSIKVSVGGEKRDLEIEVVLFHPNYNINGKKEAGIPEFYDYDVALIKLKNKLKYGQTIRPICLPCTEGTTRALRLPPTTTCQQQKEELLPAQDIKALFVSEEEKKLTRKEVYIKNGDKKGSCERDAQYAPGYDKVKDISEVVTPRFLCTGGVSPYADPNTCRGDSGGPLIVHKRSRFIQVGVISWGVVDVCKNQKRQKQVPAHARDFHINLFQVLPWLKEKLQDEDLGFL
C3d, sequence (P01024 1002-1303 limits assumed): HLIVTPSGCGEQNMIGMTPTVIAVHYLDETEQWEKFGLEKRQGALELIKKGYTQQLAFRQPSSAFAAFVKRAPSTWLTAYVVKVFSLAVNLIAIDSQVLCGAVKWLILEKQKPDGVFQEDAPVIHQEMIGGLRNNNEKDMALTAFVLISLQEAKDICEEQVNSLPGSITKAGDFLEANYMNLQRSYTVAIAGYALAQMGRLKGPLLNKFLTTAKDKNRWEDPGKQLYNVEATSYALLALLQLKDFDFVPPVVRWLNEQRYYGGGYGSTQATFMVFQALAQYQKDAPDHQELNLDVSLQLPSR

negative control mIgG2 antibody
0: all assays above
